Data: the supplement of paper PMC12764529
± gives the half width of the 95% confidence interval.

Experiments:
[1] = folding stability dG unfold (combined trypsin and chymotrypsin); higher = more stable
Outline: (§1)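 Designed mini-proteins with no cysteine and under 80 residues were kept only if AlphaFold2 dimer inter-PAE was above 15. In a PA-tagged cDNA display construct, they were digested with trypsin and chymotrypsin and then sequenced. K50 was inferred by Bayesian fitting of counts, and unfolding free energy was derived per protease or combined against a sequence-predicted unfolded-state K50 and a shared folded-state K50.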

[2] = folding stability dG unfold from chymotrypsin proteolysis; higher = more stable
Outline: as §1

[3] = folding stability dG unfold from trypsin proteolysis; higher = more stable
Outline: as §1

Sequence | folding stability dG unfold [1] [kcal/mol] | folding stability dG unfold [2] [kcal/mol] | folding stability dG unfold [3] [kcal/mol]
SAGGSAMTPEEARARAEAIAEELAAEARAAGRAAEVTVEVTELPPELYRFTITFPGRTREVLLPVESAGGSA [r15_432_JUSTAS] | -0.16 ± 0.13 | -0.262 ± 0.15 | -0.18 ± 0.18
SAGGSAGGSSGKYTITVTRKNPDGTPLGVFPIEVEGESEEEAKALAEELKNQPDVVEVKVTYVDSAGGSAGG [r6_475_JUSTAS] | 1.22 ± 0.048 | 1.02 ± 0.054 | 1.37 ± 0.027
SNPNEPLTAEEIAKHIEEFMQEEHGIDKIKPEEFTVNPPDGYIKVEMEIEHKNPPGQKHKIDIWIPPDDLSA [r9_1002_TrROS] | < -1 | 0.0346 ± 0.14 | 0.0662 ± 0.22
SAGGSAGGSAGGSTKTYNAEIDNPNGPKITIPIEYRNEDGESDFEEKAKKFAEEYAKKYSAGGSAGGSAGGS [r4_168_TrMRF] | 0.547 ± 0.14 | 0.906 ± 0.16 | -0.886 ± 0.46
SAGGKVKVTVTPDGTVTIEFEAESVEEAIKAAKAFLEEAGFEVESIPVEVPPDGTVKVTAKIKPKNASAGGS [r8_253_TrMRF] | 1.67 ± 0.14 | 1.79 ± 0.11 | 1.33 ± 0.06
SAGGDLKIEIEPYRMGDYPMYEVKIEDPDGKDITLWMNSNNGQMMVFYPNGKPRRVDSAEDVLEALKSAGGS [r8_168_TrROS] | 0.149 ± 0.1 | 0.185 ± 0.16 | -0.243 ± 0.16
SAGMKKLPSEEERKKAEELAKKGELVIIIRLKNGEKLVIVVKSEEELKELLKKLPLEIEEIYVFKVKKKSAG [r5_481_TrROS_Hall] | 2.07 ± 0.16 | 2.26 ± 0.049 | 1.72 ± 0.028
SAGGETVTLTLKVETLEELEALAKKLAEETGEEVTIEVIGPDGKKYTFKTPEELKNIPGATVKITIKKSAGG [r13_620_TrROS_Hall] | 2.87 ± 0.15 | 2.96 ± 0.041 | 2.19 ± 0.13
SAGSPVTLELRVTRPRADAATGAPATATETVTVTLPAAVVAAGLSPEEIARLLEAANPGATVELTAVASAGG [r19_110_JUSTAS] | 0.582 ± 0.07 | 0.259 ± 0.14 | 0.844 ± 0.052
SAGGSAGGMLLSSEEELEEELKRVREEGIGEVEVQVVDEKGNIHTLPTFVENPGPEPLPNEKLLSAGGSAGG [r6_258_JUSTAS] | 0.628 ± 0.13 | 0.643 ± 0.049 | 0.558 ± 0.066
SAGGEVLIDTGPSPEEALYRAYEKGGEVPVIVLEPGSRVLHIFNVRFNPIPKKVEILDEYEIPILPELSAGG [r13_309_TrMRF] | 1.38 ± 0.11 | 1.46 ± 0.087 | 1.18 ± 0.025
SAGGSAGGMVKVSSDPATGKVYVTYPGADPEAVAEKVKKEYGAKKIKVEKDPNKDVTTITITVESAGGSAGG [r6_662_JUSTAS] | -0.0511 ± 0.19 | 0.271 ± 0.14 | -1.01 ± 0.45
SAGMEVEWEIGDADEDGYVRLTVKAVLLIPETGKPVVVEAEIKMPIEELENEEVLKELARKVVEEAEAESAG [r5_964_TrMRF] | 1.85 ± 0.086 | 2.1 ± 0.032 | 1.4 ± 0.037
SAGSSLTTTSTTTFPGTVRVTTKTPDGKTFTLTVSVSTVPTPDGRVVPSVTTTMDPAARSSNVSPEVDRSAG [r5_462_JUSTAS] | -0.144 ± 0.086 | -0.0322 ± 0.075 | -0.463 ± 0.17
SMVIPPGSRAEFRLEDVPVRLEVEEGSGKVHFRVFSPENPDEEVFEAEFDINDLKPLDLPPELREAFEKESA [r9_1051_TrMRF] | 0.955 ± 0.18 | 1.18 ± 0.32 | 0.652 ± 0.057
SAGKVTVERDPSTNVVNVTVEVERERDVPPGAPVTETIIIPARVKFDEDGKLVEPISLDDILAAIRAAGSAG [r5_239_TrMRF] | 0.629 ± 0.21 | 0.684 ± 0.095 | 0.221 ± 0.12
SAGGGSSYTLLSESTSTDPATGATLTTTTYRAPDGTIYYDSTLTAPDGTTTGTATAVDPDGTPVTIALSAGG [r13_573_JUSTAS] | 1.41 ± 0.1 | 1.39 ± 0.12 | 1.32 ± 0.035
SAVPLELPLSDEELRELLEKHSVDSTITLTLKVGDRWVRVTVTLKEVKREPNRLSVSVELTVTPLPPEESAG [r14_335_JUSTAS] | 3.81 ± 0.13 | 4.08 ± 0.051 | 2.86 ± 0.07
SAGGSAGGSAGGIKDVKITEFERHPENNWYEVKISIPNGKPVEIPMNPGQSAEDILDQISAGGSAGGSAGGS [r10_984_TrROS] | 0.421 ± 0.2 | 0.651 ± 0.045 | -0.418 ± 0.19
SAGGSAGGSAGGEKEEEEVTVTIYNKETDKVIEITVPKGVTEEEARKKAKELAEELEKKKSAGGSAGGSAGG [r7_957_TrROS_Hall] | -0.00187 ± 0.19 | -0.316 ± 0.21 | 0.29 ± 0.032
SIEEIADTLQKLGLNVNIDDIELEPNPDGRFRIQVQVSGEPIRQVEVPPPPPPPPEEEVRDPDGKEHKVRSA [r9_442_TrROS] | -0.404 ± 0.33 | -0.281 ± 0.26 | -0.188 ± 0.086

Sequence | folding stability dG unfold [1] [kcal/mol] | folding stability dG unfold [2] [kcal/mol] | folding stability dG unfold [3] [kcal/mol]
SAGGSAGGSAGPITVPPGAVLLSVEEEGERTRVTVRLPGSGVVETYTFEPGEPVVVELPGSAGGSAGGSAGG [r11_774_JUSTAS] | 2.75 ± 0.043 | 2.941 ± 0.016 | 2.27 ± 0.053
SAGSALAAALKLKTYTIKITAPDGTVIELTISYHPSDPEAIKEALAKAGYPPEKLKTENPNLETTEVDASAG [r5_430_JUSTAS] | 1.79 ± 0.16 | 1.83 ± 0.14 | 1.62 ± 0.071
MKLLKITITITVTRQFPTVPVTSTTTITLEYTTPPDDPAAIEEAKKTAEEIAKKLGATDVTVTTEEVVLESS [r1_346_JUSTAS] | 3.84 ± 0.11 | 4.08 ± 0.057 | 3.34 ± 0.11
SAGIKPGEKIEKVEIVKVEVKKNKDGSKTVTVTIKLKDGKTITIKPGETIEIKIENKKEGEKITLKVKSAGG [r19_199_TrROS_Hall] | 1.74 ± 0.16 | 1.91 ± 0.13 | 1.45 ± 0.13
SAGGSAGGSGMSPEALAIKEQVKAEHPDLRVEVKEKILPNGTLEITVTFDDGTTETYTIPIGESAGGSAGGS [r20_210_JUSTAS] | 3.29 ± 0.086 | 3.36 ± 0.048 | 3.01 ± 0.13
SAGGSAGGSSVPEGWEVEREKVLEAEIVGEDGPVLRVRLYRVRVRPVDGPPRYFFELDVDDVDSAGGSAGGS [r12_544_TrMRF] | 2.74 ± 0.11 | 2.915 ± 0.027 | 2.38 ± 0.095
SPLELPSDEEITVNAEVLILPYNPETGEIEDEIPIPLPVKIKVKKDGSVEIEIDIPDSIPENVPIVLLLKSA [r9_90_TrMRF] | 1.52 ± 0.19 | 1.81 ± 0.14 | 1.29 ± 0.062
SAGGSAGGSAMVRIEFENGLVAEFPSDLPLEEVKEKAVELAKLLSNDKKPVKVKILDIKEEGSAGGSAGGSA [r18_213_TrMRF] | 0.407 ± 0.17 | 0.763 ± 0.09 | 0.14 ± 0.15
SAGGSAMPKFYLDENGNPVYELPEEPTINTPLKIGIFDEENNPAIEIEIPGSTPLEEIIQKIKDAASAGGSA [r15_309_TrMRF] | 0.677 ± 0.2 | 0.483 ± 0.14 | 0.674 ± 0.065
SAGGSAGGSMNVPPGESVTVTVPPGTGLEWLRAQLPSSRTWDFATFVSENPSPPVTTYEITVGSAGGSAGGS [r12_469_JUSTAS] | 1.76 ± 0.11 | 2 ± 0.077 | 1.16 ± 0.078
SAGFSIVEVEPDEDTYTITIEYTLPNGTVKTKDLPLKAKNPVLLEISENEITIYLPDTNEVVTLPVSLISAG [r14_947_JUSTAS] | 1.87 ± 0.29 | 1.74 ± 0.16 | 1.92 ± 0.087
SAGGSAGGSAKKKYVFTIPVKPNTFNPEKLKKFIEKAFPEFKNYEIKVEVLPDGTAKVYIEASAGGSAGGSA [r18_65_TrMRF] | 3.89 ± 0.24 | 4.4 ± 0.11 | 2.69 ± 0.12
SAGGSAGGSWEWITAEEALKRAREENPPGKPIEFHFEDPWYFTVRFDGEDPNDVTIEWVPLEKSAGGSAGGS [r12_648_TrROS] | 1.4 ± 0.2 | 1.47 ± 0.18 | 1.39 ± 0.087
SAGGSAGGSDPDLDIPPAPLEEIYIPGTGRLLVLYEPTGLVAAYPPSGSFEIGVYDPETGKISSAGGSAGGS [r12_420_TrMRF] | -0.297 ± 0.12 | -0.775 ± 0.3 | -0.0238 ± 0.073
SAGGSAIIVIEIEMGGKPVPIMIPIPPNMPPEDAREEIKELAKQEVRDPDGKPVRVKIEVIPPPPESAGGSA [r15_246_TrROS] | 0.626 ± 0.11 | 0.945 ± 0.031 | 0.163 ± 0.059
SAGGGPPAKPVYLTVTVTTEDPVETAKKVEEEVKKLFPDAEILKVEVKKNPETNLYTVTVYVKKLVKSAGGS [r8_120_TrMRF] | 4.3 ± 0.092 | 4.58 ± 0.079 | 2.67 ± 0.075
SAGGSSVSSVTLLSSETYTEGEKTFKRTTYLVPLPDGTTAIVTTEETTPPENPPEVEVSSSTTPLPGSAGGS [r16_121_JUSTAS] | 1.63 ± 0.086 | 1.78 ± 0.093 | 1.25 ± 0.044
SIEIYEGPEEAEEMAEENGTPVIPIPPDMNLSEILKQLKNQPGLPPDQKIVIVIQWEPGQWYVIRIPIKPSA [r9_314_TrROS] | 2.53 ± 0.091 | 2.734 ± 0.022 | 2.05 ± 0.059
SAGGSAGGSASVKELAEKLAEPGQTVMVIKRDGKEYLIVMSDEEAEALRKLFPDMEIERVRLSAGGSAGGSA [r18_198_TrROS_Hall] | 1.81 ± 0.062 | 1.93 ± 0.023 | 1.59 ± 0.02
SMTAEEIAERLARALEEAGIRRVEVEVTVEYDPETDEVTVTVTIRVEPAPEAPPEEEEERREREEREAEESA [r9_440_TrROS_Hall] | 2.31 ± 0.11 | 2.43 ± 0.09 | 2.26 ± 0.057
SMKPGDVKVIEIEVEYPWPPGDPEKAKEKVRDLVNSIMQEHGYDVDIPVEIEPRDGRYRVEVPIIIRPPNSA [r9_889_TrROS] | -0.409 ± 0.25 | -0.771 ± 0.36 | 0.0547 ± 0.069
